Tested on: HT-1080 cells
Experiment: Adherence and morphology of HT-1080 cells on photoimmobilized hyaluronic acid, before and after hyaluronidase treatment
Assay type: cell-based
Conditions: 30 minute treatment, 50 microliters of 1000 U/ml, wells not phototreated with HA
Procedure: This example describes the ability to block adhesion of HT-1080 cells to a surface coated with hyaluronic acid (HA). The HA was functionalized with a photoactive linker and immobilized to the bottom of a well in a tissue culture plate. The material was prepared by reacting the carboxyl group of HA disaccharides with the amine group of a heterobifunctional crosslinker (4-[p-azidosalicylamido]butylamine, ASBA) via carbodiimide chemistry. The other end of the ASBA crosslinker contains a photoactive group, so this reaction renders the HA photoactive. […] Briefly, the HA was dissolved in MES buffer and reacted with EDC and Sulfo-NHS for 15 min at room temperature. The pH of the buffer was adjusted to ca. 7.0 with concentrated PBS and ASBA was added to the solution and allowed to react for 2 h at room temperature in a light-proof vial. The reaction was quenched using 50 mM Tris. Unreacted components and reaction by-products were removed via dialysis against diH2O using a 3,000 MW exclusion. The reaction product was protected from exposure to light during lyophilization. Three species of photoactive HA were prepared that varied according to the molecular weight of the HA chains: low, medium and high MW chains.
The lyophilized, photoactive HA was reconstituted in PBS and adjusted to a working concentration of 0.2 mg/ml. […]

For Hyaluronidase, the “effect of hyaluronidase on cells attached to control wells without HA (morphology, toxicity)” value was “did not have a significant effect” and the “effect of hyaluronidase on cells attached to control wells without HA (morphology, toxicity)” value (listed as HA-ase) was “does not cause any gross morphological changes or have any toxic effects”.

— patent US9968935B2, “Devices for cell assays” (Platypus Technologies, LLC, priority 2007, dated 2018)
